From patent publication CN113234158A (FUZHOU MAIXIN BIOTECHNOLOGY DEV CO LTD, dated 2021)

Molecular target: T1, TIM3蛋白 (T细胞免疫球蛋白黏液素3) (human, UniProt Q8TDQ0 22-301)
T1 construct: whole, on cells; Endogenous TIM3 in paraffin tissue sections (immunohistochemistry); Species 'human' comes from the abstract; also called T cell immunoglobulin and mucin-3
T1 sequence (looked up): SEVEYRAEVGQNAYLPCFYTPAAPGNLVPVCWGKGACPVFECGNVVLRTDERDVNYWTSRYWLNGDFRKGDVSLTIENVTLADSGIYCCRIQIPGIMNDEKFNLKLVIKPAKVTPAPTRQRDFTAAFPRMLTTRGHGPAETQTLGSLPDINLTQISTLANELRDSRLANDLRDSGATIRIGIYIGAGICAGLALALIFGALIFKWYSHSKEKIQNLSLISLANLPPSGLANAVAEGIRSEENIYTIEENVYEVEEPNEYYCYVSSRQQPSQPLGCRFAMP
Assay: immunohistochemistry on tonsil and appendix tissue chips

binding result: binds
B1: 抗TIM3蛋白单克隆抗体 (小鼠杂交瘤细胞株7H2分泌, CGMCC NO 20763) (antibody, V domains shown)
VH: QVQLQESGGDLVKTGGSLKLSCVASGFTFRRYTMSWVRQTPAKRLEWVATIGSGGGDTYYPDTVKGRFTISRDNARSTLFLQMNSLRSEDTARYYCARSSYYYDVDLYYYSMDYWGQGTSVTVSS
VL: DILMTQTPLSLSASLGDRVTISCRASQDIRNCLNWYQQKPDGTVKLLIYYTSTLQSGVPSRFSGSGSGTDYSLTISNLEAEDIATYTCQQYSKIPRTFGGGTTLEIK
notes: also called TIM3(7H2); 本抗体
